Results reported in patent US20030134799A1.

What follows are substances tested against NMDA receptor of well-washed rat forebrain membranes (rat) (UniProt Q9R1M7) (assay: not given).
NMDA receptor of well-washed rat forebrain membranes (rat), sequence (Q9R1M7 24-1135): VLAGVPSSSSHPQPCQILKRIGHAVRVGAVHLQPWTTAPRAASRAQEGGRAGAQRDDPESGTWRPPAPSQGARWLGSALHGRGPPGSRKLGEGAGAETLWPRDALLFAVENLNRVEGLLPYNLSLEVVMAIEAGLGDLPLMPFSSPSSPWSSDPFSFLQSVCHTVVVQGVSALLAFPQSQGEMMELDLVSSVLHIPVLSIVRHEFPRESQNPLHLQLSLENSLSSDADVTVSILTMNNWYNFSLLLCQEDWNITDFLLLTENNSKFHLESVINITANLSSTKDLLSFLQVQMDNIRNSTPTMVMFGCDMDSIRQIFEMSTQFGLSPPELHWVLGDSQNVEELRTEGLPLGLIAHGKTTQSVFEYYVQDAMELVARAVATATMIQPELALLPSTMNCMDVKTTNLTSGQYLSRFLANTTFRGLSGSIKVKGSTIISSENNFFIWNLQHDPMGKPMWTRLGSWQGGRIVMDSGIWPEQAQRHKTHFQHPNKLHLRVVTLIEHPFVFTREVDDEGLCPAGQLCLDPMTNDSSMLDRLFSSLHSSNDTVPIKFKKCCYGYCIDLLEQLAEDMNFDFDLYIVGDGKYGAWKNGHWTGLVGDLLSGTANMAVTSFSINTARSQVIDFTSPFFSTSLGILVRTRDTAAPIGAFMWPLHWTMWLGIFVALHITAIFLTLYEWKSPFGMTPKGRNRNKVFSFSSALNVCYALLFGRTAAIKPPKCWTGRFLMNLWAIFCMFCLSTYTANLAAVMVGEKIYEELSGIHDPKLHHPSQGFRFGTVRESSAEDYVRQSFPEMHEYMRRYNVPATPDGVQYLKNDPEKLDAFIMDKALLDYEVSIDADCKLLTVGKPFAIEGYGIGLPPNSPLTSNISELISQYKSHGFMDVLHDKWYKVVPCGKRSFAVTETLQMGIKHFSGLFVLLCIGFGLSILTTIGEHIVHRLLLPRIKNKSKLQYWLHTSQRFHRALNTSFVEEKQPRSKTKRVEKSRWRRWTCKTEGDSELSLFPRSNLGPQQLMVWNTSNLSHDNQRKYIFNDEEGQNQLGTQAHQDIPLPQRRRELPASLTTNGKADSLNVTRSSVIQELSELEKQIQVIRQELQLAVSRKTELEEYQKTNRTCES

| Substance | IC50 [nM] |
| --- | --- |
| Ala7-Con-G (peptide) | > 2500 |

What follows are substances tested against NMDA receptor of primary cultures of rat cerebellar granule cells (rat) (assay: cell-based or functional assay).

| Substance | IC50, inhibition of NMDA-stimulated increases in cyclic GMP formation [nM] | potency in the cyclic GMP assay relative to Con-G [fold] |
| --- | --- | --- |
| Ala7-Con-G (peptide) | 77 | 4 |

These substances were tested against NMDA receptor of well-washed rat forebrain membranes (rat) (UniProt Q9R1M7) (assay: cell-based or functional assay).

| Substance | % Inh, spermine-enhanced [3H]MK-801 binding [%] | % Sti, [3H]MK-801 binding without spermine [%] | IC (µM), inhibition of spermine-enhanced [3H]MK-801 binding [µM] | IC50, antagonism of Gly-stimulated [3H]MK-801 binding, representative experiment [nM] | IC50, inhibition of spermine-enhanced [3H]MK-801 binding [nM] | IC50, inhibition of spermine-enhanced [3H]MK-801 binding, typical experiment [nM] | IC50, reduction of Gly stimulated [3H]MK-801 binding [nM] | IC50, reduction of spermine stimulated [3H]MK-801 binding [nM] | potency against spermine relative to Con-G [fold] | EC (µM), stimulation of [3H]MK-801 binding without spermine [µM] |
| --- | --- | --- | --- | --- | --- | --- | --- | --- | --- | --- |
| Ac-Con-G (peptide) | 0 | 0 |  |  |  |  |  |  |  |  |
| Ac-Tyr^o-Con-G (peptide) | 73 | 0 | 18.3 |  |  |  |  |  |  |  |
| Ala3-Con-G (peptide) | 34 | 0 | 1.8 |  |  |  |  |  |  |  |
| Ala4-Con-G (peptide) | 0 | 0 |  |  |  |  |  |  |  |  |
| Ala7,10,14-Con-G (peptide) | 100 | 0 | 0.5 |  |  |  |  |  |  |  |
| Ala7-Con-G (peptide) | 100 | 0 | 0.046 | 625 | 45 | 50 | 500 | 45 | 4 |  |
| Ala10-Con-G (peptide) | 100 | 0 | 1.1 |  |  |  |  |  |  |  |
| Ala14-Con-G (peptide) | 100 | 0 | 0.16 |  |  |  |  |  |  |  |
| Asn(GlcNAc)^o-Con-G (peptide) | 38 | 0 | 8.8 |  |  |  |  |  |  |  |
| Asn^o-Con-G (peptide) | 83 | 0 | 8.7 |  |  |  |  |  |  |  |
| Con-G(1-5) (peptide) | 50 | 0 | 7.43 |  |  |  |  |  |  |  |
| Con-G(12-15) (peptide) | 0 | 20 |  |  |  |  |  |  |  | 69.8 |
| Con-G(12-17) (peptide) | 0 | 20 |  |  |  |  |  |  |  | 58 |
| Con-G(14-17) (peptide) | 0 | 61 |  |  |  |  |  |  |  | 1.3 |
| Con-G(15-17) (peptide) | 0 | 20 |  |  |  |  |  |  |  | 61.7 |
| Con-G-OH (peptide) | 0 | 0 |  |  |  |  |  |  |  |  |
| ConG(1-5)(14-17) (peptide) | 15 | 0 | 100 |  |  |  |  |  |  |  |
| ConG(1-5)AA(14-17) (peptide) |  | 0 |  |  |  |  |  |  |  |  |
| ConG(1-5)AAAA(14-17) (peptide) |  | 0 |  |  |  |  |  |  |  |  |
| ConG(1-5)GG(14-17) (peptide) |  | 0 |  |  |  |  |  |  |  |  |
| ConG(1-5)GGGG(14-17) (peptide) |  | 0 |  |  |  |  |  |  |  |  |
| ConG(1-6)A5(14-17) (peptide) |  | 0 |  |  |  |  |  |  |  |  |
| ConG(1-6)A7(14-17) (peptide) |  | 0 |  |  |  |  |  |  |  |  |
| D-Glu3,4,7,10,14-Con-G (peptide) | 0 | 30 |  |  |  |  |  |  |  | 5.8 |
| Glu3,4,7,10,14-Con-G (peptide) | 22 | 79 | 8.5 |  |  |  |  |  |  | 6.7 |
| Glu4-Con-G (peptide) | 0 | 0 |  |  |  |  |  |  |  |  |
| Glu7,10,14-Con-G (peptide) | 70 | 0 | > 5 |  |  |  |  |  |  |  |

| Substance | % Inh, spermine-enhanced [3H]MK-801 binding [%] | % Sti, [3H]MK-801 binding without spermine [%] | IC (µM), inhibition of spermine-enhanced [3H]MK-801 binding [µM] | IC50, antagonism of Gly-stimulated [3H]MK-801 binding, representative experiment [nM] | IC50, inhibition of spermine-enhanced [3H]MK-801 binding [nM] | IC50, inhibition of spermine-enhanced [3H]MK-801 binding, typical experiment [nM] | IC50, reduction of Gly stimulated [3H]MK-801 binding [nM] | IC50, reduction of spermine stimulated [3H]MK-801 binding [nM] | potency against spermine relative to Con-G [fold] | EC (µM), stimulation of [3H]MK-801 binding without spermine [µM] |
| --- | --- | --- | --- | --- | --- | --- | --- | --- | --- | --- |
| Glu10,14-Con-G(9-17) (peptide) | 0 | 0 |  |  |  |  |  |  |  |  |
| Glu14-Con-G(12-17) (peptide) | 0 | 30 |  |  |  |  |  |  |  | 47 |
| Glu 3,4,7,10,14-Con-G(2-17) (peptide) | 70 | 33 | 5.4 |  |  |  |  |  |  | 0.9 |
| Glu 7,10,14-Con-G(6-17) (peptide) | 0 | 0 |  |  |  |  |  |  |  |  |
| Phe(pCl)^o-Con-G (peptide) | 0 | 0 |  |  |  |  |  |  |  |  |
| Phe^o-Con-G (peptide) | 51 | 53 | 6.1 |  |  |  |  |  |  | 6.8 |
| Ser3-Con-G (peptide) | 23 | 62 | 3.6 |  |  |  |  |  |  | 8.4 |
| Ser4-Con-G (peptide) | 0 | 0 |  |  |  |  |  |  |  |  |
| Ser7-Con-G (peptide) | 100 | 0 | 0.25 |  |  |  |  |  |  |  |
| Ser10-Con-G (peptide) | 100 | 0 | 1.8 |  |  |  |  |  |  |  |
| Ser14-Con-G (peptide) | 100 | 0 | 0.16 |  |  |  |  |  |  |  |
| Ser(p)3-Con-G (peptide) | 34 | 68 | 0.9 |  |  |  |  |  |  | 3.5 |
| Ser(p)4-Con-G (peptide) | 0 | 0 |  |  |  |  |  |  |  |  |
| Ser(p)7-Con-G (peptide) | 50 | 0 | 1.04 |  |  |  |  |  |  |  |
| Ser(p)10-Con-G (peptide) | 100 | 0 | 0.56 |  |  |  |  |  |  |  |
| Ser(p)14-Con-G (peptide) | 31 | 0 | 1.12 |  |  |  |  |  |  |  |
| Ser^o-Con-G (peptide) | 41 | 0 | 6.8 |  |  |  |  |  |  |  |
| Tyr3-Con-G (peptide) | 0 | 0 |  |  |  |  |  |  |  |  |
| Tyr7-Con-G (peptide) | 100 | 0 | 0.5 |  |  |  |  |  |  |  |
| Tyr(oMe)^o-Con-G (peptide) | 0 | 0 |  |  |  |  |  |  |  |  |
| Tyr(p)^o-Con-G (peptide) | 0 | 0 |  |  |  |  |  |  |  |  |
| Tyr^o-Con-G (peptide) | 0 | 0 |  |  |  |  |  |  |  |  |
| Tyr^o-Glu3,4,7,10,14-Con-G (peptide) | 0 | 31 |  |  |  |  |  |  |  | 2.7 |
| di-iodo-Tyr7-Con-G (peptide) | 100 | 0 | 0.5 |  |  |  |  |  |  |  |
| iodo-Tyr7-Con-G (peptide) | 100 | 0 | 0.5 |  |  |  |  |  |  |  |
| tBu-Tyr^o-Con-G (peptide) | 29 | 69 | 1.5 |  |  |  |  |  |  | 1 |

What follows are substances tested against NMDA receptor of well-washed rat forebrain membranes (rat) (UniProt Q9R1M7) (assay: displacement of [3H]ifenprodil, polyamine-sensitive site).

| Substance | IC50 [nM] |
| --- | --- |
| Ala7-Con-G (peptide) | 2500 |
